We go through two sequences from article doi:10.1101/2021.12.25.474155.

This series deals with NCAP (SARS-CoV-2) (UniProt P0DTC9). Kind of series: EMSA.

What is called Kd is the equilibrium constant for the complex coming apart. A lower Kd goes with a tighter complex.

As for “GGAUUAAAGGUUUAUACCUUCCCAGGUAACAAACCAACCAACUUUCGAUCUCUUGUAGAUCUGUUCUCUAAACGAACUUUAAAAUCUGUGUGGCUGUCACUCGGCUGCAUGCUUAGUGCACUCACGCAGUAUAAUUAAUAACUAAUUACUGUCGUUGACAGGACACGAGUAACUCGUCUAUCUUCUGCAGGCUGCUUACGGUUUCGUCCGUGUUGCAGCCGAUCAUCAGCACAUCUAGGUUUCGUCCGGGUGUGACCGAAAGGUAAGAUGGAGAGCCUUGUCCCUGGUUUCAACGAGAAAACACACGUCCAACUCAGUUUGCCUGUUUUACAGGUUCGCGACGUGCUCGUACGUGGCUUUGGAGACUCCGUGGAGGAGGUCUUAUCAGAGGCACGUCAACAUCUUAAA [F406]”, the dissociation constant Kd was 1.2 nM. The same measure for “GGCUGUGUGGCUGUCACUCGGCUGCAUGCUUAGUGCACUCACGCAGUAUAAUUAAUAACUAAUUACUGUCGUUGACAGGACACGAGUAACUCGUCUAUCUUCUGCAGGCUGCUUACGGUUUCGUCCGUGUUGCAGCCGAUCAUCAGCACAUCUAGGUUUCGUCCGGGUGUGACCGAAAGGUAAGAUGGAGAGCCUUGUCCCUGGUUUCAACGAGAAAACACACGUCCAACUCAGUUUGCCUGUUUUACAGGUUCGCGACGUGCUCGUACGUGGCUUUGGAGACUCCGUGGAGGAGGUCUUAUCAGAGGCACGUCAACAUCUUAAA [F323]”: 29 nM.
